Results as given in article PMC12135134.

Molecular target: recombinant human IgG1 Fc fragment (recFc), residues 236–444 of the rituximab heavy chain, non-glycosylated homodimer (human)
Test: crystal structure; co-crystal of the complex isolated by SEC after mixing affitin and Fc chain 4:1; hanging drop, 20 °C, 24% w/v PEG8000, 0.1 M Tris/HCl pH 8.5; space group P2_(1), 2.90 Å

stoichiometry N (chains in the oligomer): 2
Substance: recombinant human IgG1 Fc fragment (recFc), residues 236–444 of the rituximab heavy chain, non-glycosylated homodimer (domain or fragment)
